# Measured values as given in the DeepSol protein solubility set.
# Test: soluble on expression in E. coli; label from the status in PepcDB or PDB records
row,Sequence,soluble on expression in E. coli
1,MVNVRGPVLEVDDPKSVETSHGTSQLAEVVIRPERGAASPTTVTLWGKWTETVEYLAVGMELLATDLDERTFDGDTQYSTTGESAVVVEPDFLVDVTDIRGWVQCPRMYYLNKLTGLPLKYPVLKGTVVHEVFGDLLRGRDLESSIESRVAEAALDIGLLGETADAVADDVRQNAAAIQGWLQQGRFGEDSWRSEQTLISERFGIKGRADAVRRGMPVELKTGKNLKRSPRFQDKVQAACYGLLLADDIADPPDTGTLLYTKNSALDRSEESGDLSPAKEFSIGPGFLKYVLRVRNEIAAAEYDMSVPTGFEADANCDYCFEQDTCMVVSGRLDQESKAGQLGEPLPEPERAYFERLYRAIEEERREVHAEYRKLWEQSAAERADDDRALVDLDPLGREPLDGGRWALSARRTSDAVSKIREGDRVLASDGHPTQGTAELATVRHLDDEIVVVADEPFELRRIDVYPSELGVDRQLTALHDAVLRGDPDRKDVLFGRREPSFVGDHRPIIDNNESQNEAVNRALAAEDFALIHGPPGTGKTYTLAQTVQALVARGDRVLLSAFTNRAVDNAIEALEAQGFTDVLRWGSESGVRDDMQSYRFDRTGDPRERAAALRDAQVVAATTAACGSRALKQQQFDVAVIDEAGQLTEPGTFLATNRADRFVLVGDHEQLPPVVRAENDLQTSLFEQLIDDYPDAAVMLDRQYRMSQRIQYFASREFYDGQLRPANAEVASQRLADLDGVDVSTLPSALRDAVSFVDPGLEHHHHHH,not soluble
2,MVNYKEKLDEAIHLTQQKGFEQTRAEWLMLDVFQWTRTDFVVHMHDDMPKAMIMKFDLALQRMLLGEPIQYIVGFASFYGRTFDVNSNCLIPRPETEEVMLHFLQQLEDDATIVDIGTGSGVLAITLKCEKPDLNVIATDISLEAMNMARNNAEKHQSQIQFLTGDALKPLINEGIKLNGLISNPPYIDEKDMVTMSPTVTRFEPHQALFADNHGYAIYESIIEDLPHVMEKGSPVVFEIGYNQGEALKSIILNKFPDKKIDIIKDINGHDRIVSFKW,not soluble
3,MVPHDKDKDNPSELIRGKDVAAFGLWSLPSFDEPRDEPAVAAPQVPAVAEPAPAPPAVEEVELETVKPPTLEEIEAIRQDAYNEGFATGERDGFHAGQLKARQEAEEALKERLQSLERLMTQLLEPIAEQDALIEQGMVNLVNHVARQVIQRELHMDSSHVRQVLREALKLLPMGAANIRIHVNPQDFERVKALRERHEESWRILEDDSLLPGGCRIETEHSRIDATIETRLAQAVKQLFEQQREQATHPLASDIRIDLDAPGDVDAP,not soluble
4,MVPKTATSTETKTITRIIHYVDKVTNQNVKEDVVQPVTLSRTKTENKVTGVVTYGEWTTGNWDEVISGKIDKYKDPDIPTVESQEVTSDSSDKEITVRYDRLSTPEKPIPQPNPEHPSVPTPNPELPNQETPTPDKPTPEPGTPKTETPVNPDPEVPTYETGKREELPNTGTEANATLASAGIMTLLAGLGLGFFKKKEDEKLEHHHHHH,soluble
5,MVPNDVFQKLLYDLFCMWHGVQRHYDPPIPDSEEQRMQKVKNLICKLLTEIDGRVNRIKQNNNHQRGQDFYEEWTMLTWNVLCITNRLQNSLSQVVVSNEDKMIYSRLNQALVELVNYSRDFLPFPSTNEMDPEYVMLRDKMNQTMMSLHGLYRQMNSAMYQTPDDVENFRIHLQTFGDDILVPCLEQYKTFCNKNCMALWQQVRLVQVERMRDQVKDQGCSIENLVSFYSNMTYVLAVLGARLQGFRYDLTVNKKFFNFDPVVHMSEAVFAALELLMSNCVLATEPSTSAILVTNNLFAMNCGALARGVVFKDFEIQVVSEETAEHIQSEMSRQRLLQHPAPIGNVPSAALLAMKPTTGTKRSNAASNSDSANNTAHKKSDVNSKESVIIYPVYNSKNRYWAATYPHLLCTTRQKGRQSIHSSYQDLSPSGTNSSASNDKNGSGKRPIFYFHIKATMFSPSGRFATAHTLSLPFTIATRRNQDCQVQRMMSSYTATIFWLYGCNTQDGLLLQWIDGGMHWDHFKHLFKQHFKLLKYKLQCPDCCSGQDGARVNGVQQIVTFKNVLCPHLRYECNSTNVRFSVWRGMLELLQIFHDTRNNVRKLWEMGFLMGFMEFEEVDNMLEKHKSALIMRLSFVTGGTICFTVKSLAHTLDPRSSRPIHLEPLDLKRLQQKCLKDYLRDIADAEKVKYILTANEEVINIESLLESLKELGVKPENPSESREISSNITHMGDIDTMQHIKFTAMRIAVVTCKVKPPSADQEENDANGLNRLQATLGTRDDDFLRDFVQLANAYGKSKQDLYEALDFINDQYQPGPIRKTSSIYDSSHHIPLAPAPIARNMGPTMISPPPAKVRPPAVDTYPRSSQFELVRSDSDHLPPSNTMMRVSCSPPKPPSQLPSPNQTTIPHMYNNGIPMIYEHHQQQRFDY,not soluble
6,MVPTPKPVVDRMLELADVDETDVLYDLGSGDGRIVIRAARTHGARGVGIEIDPDLVKKARKNAKEAGVADLVEFRQGDLFEADISEATVVTLYLLPSVNQKLRPILFEQLSPGTPVVSHDFDMGRWAPDRTVDLEGDTVYRWTIPLEHHHHHH,not soluble
7,MVQEIIVDSGDIEFLTTPKEYKQQLLSLIECARQRIFITALYLQDDEAGREILHALYQAKANFPTIEINIFVDFNRGQRGLIGEKASLGNRALYLKLAHEYPHTVNIYGVAVKRKEVFGVLHLKGMVFDEKLFYTGASINDIYLHQGERLEHHHHHH,not soluble
8,MVQHLTAEEIIQYISDAKKSTPIKVYLNGNFEGITYPESFKVFGSEQSKVIFCEADDWKPFYEAYGSQFEDIEIEMDRRNSAIPLKDLTNTNARIEPGAFIREQAIIEDGAVVMMGATINIGAVVGEGTMIDMNATLGGRATTGKNVHVGAGAVLAGVIEPPSASPVIIEDDVLIGANAVILEGVRVGKGAIVAAGAIVTQDVPAGAVVAGTPAKVIKQASEVQDTKKEIVAALRKLND,not soluble
9,MVQLNGKVAIVTGGAKGIGKAITVALAQEGAKVVINYNSSKEAAENLVNELGKEGHDVYAVQADVSKVEDANRLVEEAVNHFGKVDILVNNAGITRDRTFKKLNREDWERVIDVNLSSVFNTTSAVLPYITEAEEGRIISISSIIGQAGGFGQTNYSAAKAGMLGFTKSLALELAKTNVTVNAICPGFIDTEMVAEVPEEVRQKIVAKIPKKRFGQADEIAKGVVYLCRDGAYITGQQLNINGGLYM,not soluble
10,MVQSSSVLREPSMDEILTSIREIIEENAVHPDYFSNEGAAGNSSRENLEIPSEGVYDTSLSVDDAMKALADRIGLSSENHDFSLTKDKESIEAENNTVGVDMQKMKRSSEEQSSVHRTQEHNKPFSQSENVIAGHVELSAYCISSAEKIAKDVLRPAIAEWLQHKLPVLLEDILREEIVRAIKKSS,not soluble
11,MVRIDAKGLHYKKLNDLIWEAVENGEEEIVLDNVCGQRYIGAGIRKKVKIEINGVPGNDLGVFMDGPEIIVNGNAQDGVGNTMNAGKIVVHGHAGDIIGYAMRGGHIYIKRNAGYRVGIHMKAYKENYPVVVIGGFARDFLGEYMAGGLLIVLGLEKDEDGNIAGNYVGTGMHGGEIFLRGTVEEHKLGKEVKIFQPTEEDINRIKPYVEEFCRLFDYDSEEILNEEFIILKPYTHRPYGRLYAY,not soluble
12,MVRMALEGMSKRKRKRSVQEGENPDDGVRGSPPEDYRLGQVASSLFRGEHHSRGGTGRLASLFSSLEPQIQPVYVPVPKQTIKKTKRNEEEESTSQIERPLSQEPAKKVKAKKKHTNAEKKLADRESALASADLEEEIHQKQGQKRKNSQPGVKVADRKILDDTEDTVVSQRKKIQINQEEERLKNERTVFVGNLPVTCNKKKLKSFFKEYGQIESVRFRSLVCFIPPLEHHHHHH,not soluble
13,MVRQPAVAGQFYTDDPRRLREELGHLIRPVPAPRRVTGVIAPHAGYMYSGAIAGAVYGSIVIPRTVVILGPNHHGLGAAASLYPDGTWLSPLGEVPIEQRLSSLVLEHVPQAEPDVIAHRFEHSLEVQVPFLRYLNSDVAIVPMCLGGGGYGWCRQVGEGLARAIAAYGEEVLIVASSDMTHYESAESARLKDEAALSCVLALDAEGLLKVCRQRGITMCGVIPSTVMLVAARELGASRAELIRYGTSGDVTGDNRQVVAYAAVAVYLEHHHHHH,not soluble
14,MVRTVKSYNGEADDLAGQIHTLPAVWVTYGGSKVEPASTGGVCGRYQDTAEFVVMVAARNLRNEQAQRQGGIDSREIGSNDLIRAVRRLLDGQRLGFADSRGLVPKAVRAIANHVLVQNAAVSIYAVEYAIRFNTCGLENDRYPERTDNPDDPNHIFTKYQGTLSEPWPDFEGLDGKIYDPQSADEIPVNLTLKDKQ,not soluble
15,MVSATYSVVYETGKKLNSGFDNWGWDSKMSFKDNSLVLTADPDEYGAISLKNLNSNYYGKGGCIYLQVKTETEGLVKVQGVRGYDETEAFNVGSFRSSSDFTEYKFEVDDEYQFDRIIVQDGPASNIPIYMRYIIYSTGSCDDHILEHHHHHH,soluble
16,MVSIIIPIYNVQDYINDCLYSVYTQTYSEIEVILVNDCTPDNSMLIAHSNIEKLKKRFNVKIIDHKSNKGLSAARNSGVKEATGEWVYFLDSDDEITPDCIECFVRLAERYLSVDFIVGGIRVIGRNISYRLTTSEYVIGNDNILKCYISGMWYEMAWNKLIRKEYFVSNNLWFKEGLLHEDQLFSYQLATTALTMATVNKPTYIYKMRMSGAITSSNGRKNFDSFICILEYMVYSVMQKYSTSSVTLEYAQIIRFSYSILLSLYGKHNLTEMEVVNYELKVDRICRIVTFYKCKLPVPIQIKLTIIKLPQTMRKVLLKWHNKKIQKKLEHHHHHH,soluble
17,MVSIMNKNELITEILKNEVVKALGCTEVGLIGYTVAKAKPEDLYSIKEIKLILDKGTFKNAFSVGVPNTNKFGILPAVVGGLLGREENKLEVFKDIKYDEKLEEFIENKLKIEVIDSDVYCKVIIKANKVYEAETKGSHSGKSLSDDLKNAYKSLTLKDFIDYIEDIPEEVIKIIKETIETNKNLSTPEVPEDFISLDLKDEILNHMLKKTVSAVYNRMIGINKPAMAIAGSGNMGLTATLPIIAYDEIKGHDEEKLTKSITLSALTTIYSAYHSSYISAMCGCVNRGGIGAVSGLSYYIFGFDRIEESIKSFTANLPGIVCDGGKIGCALKIASGVFAIYLSLFSKVPYTNGIVGKDFKECIENIGKIGKAMKPVDDEIIEILKNKK,soluble
18,MVSRRVQALLDQLRAQGIQDEQVLNALAAVPREKFVDEAFEQKAWDNIALPIGQGQTISQPYMVARMTELLELTPQSRVLEIGTGSGYQTAILAHLVQHVCSVERIKGLQWQARRRLKNLDLHNVSTRHGDGWQGWQARAPFDAIIVTAAPPEIPTALMTQLDEGGILVLPVGEEHQYLKRVRRRGGEFIIDTVEAVRFVPLVKGELA,soluble
19,MVSSQKLEKPIEMGSSEPLPIADGDRRRKKKRRGRATDSLPGKFEDMYKLTSELLGEGAYAKVQGAVSLQNGKEYAVKIIEKQAGHSRSRVFREVETLYQCQGNKNILELIEFFEDDTRFYLVFEKLQGGSILAHIQKQKHFNEREASRVVRDVAAALDFLHTKDKVSLCHLGWSAMAPSGLTAAPTSLGSSDPPTSASQVAGTTGIAHRDLKPENILCESPEKVSPVKICDFDLGSGMKLNNSCTPITTPELTTPCGSAEYMAPEVVEVFTDQATFYDKRCDLWSLGVVLYIMLSGYPPFVGHCGADCGWDRGEVCRVCQNKLFESIQEGKYEFPDKDWAHISSEAKDLISKLLVRDAKQRLSAAQVLQHPWVQGQAPEKGLPTPQVLQRNSSTMDLTLFAAEAIALNRQLSQHEENELAEEPEALADGLCSMKLSPPCKSRLARRRALAQAGRGEDRSPPTAL,soluble
20,MVTSTRARFGQFVHRRRRLLNLTQDEVTAAGGPSDAAQTRAENGTGPDPSIETLRKLDVALRWAPGSAARTLDGGHPTPLEALDGEDRSPAARPLTLGPSEIPLDLDTIIEILGPHTQITKLSAAHPEVPGLAEAAGELSRVVSKITGAYVTRLLEVNGGPTGPRQPLVEFAFGHLLEEPTTVTDPRELEEARYRRFLYGRGEDLDAATRERFWRRWEDAVKLVATEDPERSGDAEVNA,not soluble
